Laboratory results reported in the supplement of paper PMC9732359.
± gives the uncertainty stated by the source.

Test: protein stability index of a GFP-peptide fusion (yeast GPS) (PSI 1-4); higher = more stable; sorted into four equal gates, so the index is relative within each strain
Summary of the method: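 Tiled 17-residue peptides from yeast proteins were fused downstream of GFP on a plasmid that also expresses Cherry, and the pooled library was carried in yeast. Mid-log cultures grown in leucine-free medium were sorted into four equal gates by GFP/Cherry fluorescence ratio. Plasmids from each gate were PCR-amplified and Illumina-sequenced, and reads were assigned to strains by barcodes. Each peptide's protein stability index is the sum, over gates, of the gate's read frequency multiplied by its gate number.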

AESEWNGVNVQTLKGVG [RPC37]
protein stability index (doa10∆): 1.23 ± 0.075 | protein stability index (pdr5∆): 1.79 ± 0.14 | protein stability index (ubr1∆): 1.13 ± 0.18

NKYQYSLKQYAGNLITT [SRP68]
protein stability index (doa10∆): 3.23 ± 0.23 | protein stability index (pdr5∆): 1.44 ± 0.14 | protein stability index (san1∆): 1.7 ± 0.11 | protein stability index (ubr1∆): 1.54 ± 0.06

AAANNNIKPVEQHHINN [GAL11]
protein stability index (doa10∆): 2.97 ± 0.095 | protein stability index (pdr5∆): 2.67 ± 0.066 | protein stability index (san1∆): 2.72 ± 0.077 | protein stability index (ubr1∆): 2.96 ± 0.062

YSIALSNVAAIFKGIGG [GAL11]
protein stability index (doa10∆): 1.52 ± 0.08 | protein stability index (pdr5∆): 1.55 ± 0.076 | protein stability index (san1∆): 1.38 ± 0.18 | protein stability index (ubr1∆): 1.48 ± 0.048

MDFLNSMENTPKVPVSA [GAL11]
protein stability index (doa10∆): 2.42 ± 0.094 | protein stability index (pdr5∆): 2.45 ± 0.11 | protein stability index (san1∆): 2.1 ± 0.13 | protein stability index (ubr1∆): 2.37 ± 0.065

IYLSRFLIKASVREINL [SSN8]
protein stability index (doa10∆): 1.83 ± 0.18 | protein stability index (pdr5∆): 1.86 ± 0.13 | protein stability index (san1∆): 2.04 ± 0.13 | protein stability index (ubr1∆): 1.25 ± 0.16

YIDIRTNNVLRKLGLLG [MTW1]
protein stability index (doa10∆): 1.49 ± 0.053 | protein stability index (pdr5∆): 1.76 ± 0.069 | protein stability index (san1∆): 1.64 ± 0.15 | protein stability index (ubr1∆): 1.5 ± 0.056

AELRPLQFKSIREIDVA [RPS7A]
protein stability index (doa10∆): 2.26 ± 0.093 | protein stability index (pdr5∆): 1.67 ± 0.1 | protein stability index (san1∆): 1.97 ± 0.24 | protein stability index (ubr1∆): 1.43 ± 0.068

RSSSASNEFVPNTSDNN [SWI1]
protein stability index (doa10∆): 2.72 ± 0.068 | protein stability index (pdr5∆): 2.77 ± 0.09 | protein stability index (san1∆): 2.69 ± 0.059 | protein stability index (ubr1∆): 2.9 ± 0.063
